In patent US20060205649A1:

Tests used:
[1] = target: NRSF (endogenous, JTC-19 rat lung fibroblasts) (rat) (UniProt O54963); assay: cell-based or functional assay
MYC-tagged NRSF protein = assay: co-immunoprecipitation (anti-KT3) of HEK cell protein incubated with 0-1000 nM NADH, anti-MYC Western blot; the varied concentration is that of NADH, not of a protein
Sequence of MYC-tagged NRSF protein (Q13127 whole entry): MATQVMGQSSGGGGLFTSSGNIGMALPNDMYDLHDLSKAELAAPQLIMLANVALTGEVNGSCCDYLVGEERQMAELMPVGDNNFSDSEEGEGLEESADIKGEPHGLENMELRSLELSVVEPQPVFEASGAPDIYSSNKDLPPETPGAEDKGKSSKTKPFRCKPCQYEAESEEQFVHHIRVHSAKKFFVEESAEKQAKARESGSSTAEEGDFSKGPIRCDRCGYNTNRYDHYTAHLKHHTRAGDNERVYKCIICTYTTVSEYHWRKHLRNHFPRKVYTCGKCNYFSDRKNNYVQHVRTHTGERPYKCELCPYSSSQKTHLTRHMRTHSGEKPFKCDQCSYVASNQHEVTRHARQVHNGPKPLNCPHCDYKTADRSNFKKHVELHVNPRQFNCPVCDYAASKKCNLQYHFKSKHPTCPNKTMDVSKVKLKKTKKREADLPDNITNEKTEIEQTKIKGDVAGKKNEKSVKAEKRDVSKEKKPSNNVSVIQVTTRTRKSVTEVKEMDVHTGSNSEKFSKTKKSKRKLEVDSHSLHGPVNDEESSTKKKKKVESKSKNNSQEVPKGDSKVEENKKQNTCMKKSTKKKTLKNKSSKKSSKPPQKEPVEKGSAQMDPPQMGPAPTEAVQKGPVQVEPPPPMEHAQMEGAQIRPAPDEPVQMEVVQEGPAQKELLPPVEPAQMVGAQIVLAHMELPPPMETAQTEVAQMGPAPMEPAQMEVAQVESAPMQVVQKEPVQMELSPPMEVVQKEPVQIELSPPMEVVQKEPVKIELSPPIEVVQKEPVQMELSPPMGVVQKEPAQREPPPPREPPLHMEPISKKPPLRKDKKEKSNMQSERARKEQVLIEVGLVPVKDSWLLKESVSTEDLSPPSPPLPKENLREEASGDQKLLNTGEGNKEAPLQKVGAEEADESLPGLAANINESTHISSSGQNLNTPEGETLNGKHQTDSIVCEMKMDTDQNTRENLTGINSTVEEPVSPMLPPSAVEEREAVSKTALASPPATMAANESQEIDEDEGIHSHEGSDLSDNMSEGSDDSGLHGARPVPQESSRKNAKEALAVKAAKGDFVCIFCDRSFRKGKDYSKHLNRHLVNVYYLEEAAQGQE

Sequence of NRSF (endogenous, JTC-19 rat lung fibroblasts) (rat) (O54963 whole entry): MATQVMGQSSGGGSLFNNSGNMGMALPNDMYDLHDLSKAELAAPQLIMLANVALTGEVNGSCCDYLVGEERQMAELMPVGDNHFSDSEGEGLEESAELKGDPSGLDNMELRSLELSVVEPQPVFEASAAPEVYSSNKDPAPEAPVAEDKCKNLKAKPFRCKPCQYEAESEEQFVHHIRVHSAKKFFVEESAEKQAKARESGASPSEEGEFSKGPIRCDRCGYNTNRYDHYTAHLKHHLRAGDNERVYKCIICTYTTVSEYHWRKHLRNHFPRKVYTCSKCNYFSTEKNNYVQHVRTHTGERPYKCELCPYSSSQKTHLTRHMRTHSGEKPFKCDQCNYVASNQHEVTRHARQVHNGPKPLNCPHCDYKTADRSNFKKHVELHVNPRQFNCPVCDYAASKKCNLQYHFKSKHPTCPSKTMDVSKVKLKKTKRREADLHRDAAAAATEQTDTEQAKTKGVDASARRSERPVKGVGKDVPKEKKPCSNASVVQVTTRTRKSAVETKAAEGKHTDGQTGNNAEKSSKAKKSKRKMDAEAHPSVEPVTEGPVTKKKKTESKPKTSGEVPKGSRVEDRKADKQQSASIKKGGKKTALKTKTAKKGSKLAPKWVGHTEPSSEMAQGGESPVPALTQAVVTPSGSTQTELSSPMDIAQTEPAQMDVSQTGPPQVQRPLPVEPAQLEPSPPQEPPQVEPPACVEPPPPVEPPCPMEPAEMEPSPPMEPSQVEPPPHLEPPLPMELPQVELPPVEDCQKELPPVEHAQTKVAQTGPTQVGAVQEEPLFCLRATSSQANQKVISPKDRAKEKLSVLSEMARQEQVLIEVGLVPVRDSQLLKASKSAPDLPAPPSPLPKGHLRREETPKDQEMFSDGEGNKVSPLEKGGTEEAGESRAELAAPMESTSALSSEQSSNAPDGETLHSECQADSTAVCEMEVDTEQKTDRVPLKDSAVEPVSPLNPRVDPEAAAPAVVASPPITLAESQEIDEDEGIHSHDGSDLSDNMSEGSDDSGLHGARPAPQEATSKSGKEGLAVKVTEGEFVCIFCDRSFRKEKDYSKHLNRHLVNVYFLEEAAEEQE
Sequence of KT3-tagged CtBP2 (P56546 whole entry): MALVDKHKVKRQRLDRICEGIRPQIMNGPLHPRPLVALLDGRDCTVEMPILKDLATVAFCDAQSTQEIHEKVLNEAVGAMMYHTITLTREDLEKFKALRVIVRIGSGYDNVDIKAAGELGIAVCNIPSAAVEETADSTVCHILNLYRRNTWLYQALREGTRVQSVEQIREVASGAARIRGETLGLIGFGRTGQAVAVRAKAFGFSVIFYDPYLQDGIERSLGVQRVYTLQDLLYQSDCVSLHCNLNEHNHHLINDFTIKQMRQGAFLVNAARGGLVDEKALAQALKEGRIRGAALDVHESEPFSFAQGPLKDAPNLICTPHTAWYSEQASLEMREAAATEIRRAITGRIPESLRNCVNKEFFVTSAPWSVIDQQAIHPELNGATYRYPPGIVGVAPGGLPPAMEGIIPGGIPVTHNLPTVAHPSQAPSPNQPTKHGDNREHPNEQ

| amount of CtBP recruited to CHRM4, the NRSF target gene (ChIP, JTC-19 cells grown with 2-DG or glucose) [1] | NADH concentration at half maximal binding of CtBP to NRSF (MYC-tagged NRSF protein) | Substance |
| --- | --- | --- |
| 5 fold |  | CtBP (endogenous, JTC-19 rat lung fibroblasts) (from UniProt F7FG31 1-441) |
|  | 70 nM | KT3-tagged CtBP2 |
